Experimental data published in article PMC11602245 (Journal of Peptide Science, 2024).
One block for each molecule: values may come before it. Starred links: 1 amine or outer side, 2 acyl side, 3 side chain; linkers in the order of their positions; H or OH if unused. Positions of bridges follow the written chain, without caps; N, C: chain ends. Non-standard residues stand in square brackets, D forms with d. Residues, ends and D or L forms follow the SMILES beside them. *: point of attachment. X1 = NC(=O)C[C@H](N[*:1])c1cn([C@@H](Cc2ccccc2)C(=O)[*:2])nn1; DOTA = O=C(O)CN1CCN(CC(=O)O)CCN(CC(=O)*)CCN(CC(=O)O)CC1; NMeF = CN[C@@H](Cc1ccccc1)C(=O)O

Legend:
[1] = Metabolic stability in human plasma; assay type: in vitro ADME
Procedure: The human plasma used in the in vitro stability assays was purchased from Sigma‐Aldrich (H4522‐20ML).
The stability assays were conducted by incubating the ^111In‐labeled peptide conjugates in human plasma at 37°C for 24 h (n = 2). The detailed description of the procedure is described elsewhere.[13]
In order to assess the proteolytic stability of the new radiolabeled peptide conjugates, in vitro stability studies were conducted in blood plasma. [^111In]In‐XG1 and [^111In]In‐XG1‐A/B/C were incubated in human plasma at 37°C, and samples were taken after 24 h for their analysis by γ‐HPLC (Figure 3). […] This hypothesis is also supported by previously reported data that identified Thr^10‐Phe^11 as one of the main cleavage sites of the native SST‐14.[15] […] To better understand the degradation of [^111In]In‐XG1‐C over time, the stability was also determined after 4 h incubation in plasma (Figure 3D), after which only 27% of the original radiopeptide remained intact. […] We hypothesize that the incorporation of the methylated amino acid (N‐Me‐Phe^11) leads to a conformation of the peptide that facilitates the accessibility of amide bonds to proteases. Similar observations have been reported for other triazolo‐peptidomimetics.[11] […] For example, one of the main enzymes involved in the degradation of the native SST‐14 is neprilysin (NEP), a membrane‐bound metalloprotease abundantly expressed in various tissues.[21], [22] The role of this enzyme in the degradation of peptides cannot be contemplated with in vitro plasma stability assays but would have to be assessed in vivo (e.g., mice).[23]

[2] = cited from earlier work
[3] = human plasma; details: 37°C, up to 24 h
[4] = biological target: T1, SST2R‐overexpressing AR42J cells (Rattus norvegicus, UniProt P30680); experiment: Cell binding and internalization studies; assay type: cell-based; details: after 2 h, corresponds to the determined unspecific binding (blocking experiments)
T1 construct: incubating the ^111In‐labeled peptide conjugates with SST2R‐overexpressing AR42J cells in six well plates; host or cells: AR42J cells
Procedure: The AR42J cell line was purchased from the American Type Culture Collection (ATCC).
The cell binding and internalization assays were performed by incubating the ^111In‐labeled peptide conjugates with SST2R‐overexpressing AR42J cells in six well plates as previously described (n = 2–3 in triplicates).[13]
The binding of radiolabeled somatostatin derivatives to multiple SSTRs is of high interest because it allows to address a wide range of cancers with distinctive SSTR‐subtype expression patterns.[24] Yet, SST2R is of major medical importance because it is over‐expressed or co‐expressed by most cancer types (e.g., NETs).[25] Thus, we first focused on SST2R by conducting cell binding and internalization experiments with the SST2R‐expressing cell line AR42J. In order to determine the specificity of the binding and internalization of the radiolabeled peptides, the octapeptide TATE (DPhe^1‐cycle(Cys^2‐Phe^3‐DTrp^4‐Lys^5‐Thr^6‐Cys^7)Thr^8) was used in excess for blocking experiments. […] These values are in accordance with previously reported data.[13] […] From the total applied activity, <1% was found at the cell membrane and internalized, which corresponds to the determined unspecific binding (blocking experiments). See Figure S9 for the results of the binding and internalization studies. […]

T1 sequence (P30680 whole entry): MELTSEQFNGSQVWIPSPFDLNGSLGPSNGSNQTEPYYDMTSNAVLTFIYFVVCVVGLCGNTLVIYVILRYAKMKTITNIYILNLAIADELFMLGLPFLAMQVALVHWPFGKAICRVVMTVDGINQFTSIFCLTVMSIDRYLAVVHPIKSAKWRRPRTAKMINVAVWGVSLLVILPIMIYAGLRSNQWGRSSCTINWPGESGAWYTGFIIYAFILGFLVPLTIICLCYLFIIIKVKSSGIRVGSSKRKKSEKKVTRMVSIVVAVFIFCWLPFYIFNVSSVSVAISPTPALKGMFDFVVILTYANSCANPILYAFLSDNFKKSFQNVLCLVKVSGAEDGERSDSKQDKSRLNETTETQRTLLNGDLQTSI

Molecule: C[C@H](NC(=O)CN1CCN(CC(=O)O)CCN(CC(=O)O)CCN(CC(=O)O)CC1)C(=O)NCC(=O)N[C@H]1CSSC[C@@H](C(=O)O)NC(=O)[C@H](CO)NC(=O)[C@H]([C@@H](C)O)NC(=O)[C@H](Cc2ccccc2)NC(=O)[C@H]([C@@H](C)O)NC(=O)[C@H](CCCCN)NC(=O)[C@@H](Cc2c[nH]c3ccccc23)NC(=O)[C@H](Cc2ccccc2)NC(=O)[C@H](Cc2ccccc2)n2cc(nn2)[C@H](CC(N)=O)NC(=O)[C@H](CCCCN)NC1=O [[^111In]In‐XG1, [DOTA,Asn^5‐Ψ[Tz]‐Phe^6,DTrp^8]SST‐14, metal not drawn] ({DOTA}-AGCK[X1]F[dW]KTFTSC-OH; disulfide 3-13)
major radiometabolite at rt = 6.4 min [1]: 35.3%
remaining at 24 h ([1]; human, plasma): 56%

Molecule: C[C@H](NC(=O)CN1CCN(CC(=O)O)CCN(CC(=O)O)CCN(CC(=O)O)CC1)C(=O)NCC(=O)N[C@H]1CSSC[C@@H](C(=O)O)NC(=O)[C@H](CO)NC(=O)[C@H]([C@@H](C)O)NC(=O)[C@H](Cc2ccccc2)NC[C@H]([C@@H](C)O)NC(=O)[C@H](CCCCN)NC(=O)[C@@H](Cc2c[nH]c3ccccc23)NC(=O)[C@H](Cc2ccccc2)NC(=O)[C@H](Cc2ccccc2)n2cc(nn2)[C@H](CC(N)=O)NC(=O)[C@H](CCCCN)NC1=O [[^111In]In‐XG1‐B, [DOTA,Asn^5‐Ψ[Tz]‐Phe^6,DTrp^8,Thr^10‐Ψ[NH]‐Phe^11]SST‐14, metal not drawn]
remaining at 24 h ([1]; human, plasma): > 97%

Molecule: C[C@H](NC(=O)CN1CCN(CC(=O)O)CCN(CC(=O)O)CCN(CC(=O)O)CC1)C(=O)NCC(=O)N[C@H]1CSSC[C@@H](C(=O)O)NC(=O)[C@H](CO)NC(=O)[C@H]([C@@H](C)O)NC(=O)[C@H](Cc2ccccc2)N(C)C(=O)[C@H]([C@@H](C)O)NC(=O)[C@H](CCCCN)NC(=O)[C@@H](Cc2c[nH]c3ccccc23)NC(=O)[C@H](Cc2ccccc2)NC(=O)[C@H](Cc2ccccc2)n2cc(nn2)[C@H](CC(N)=O)NC(=O)[C@H](CCCCN)NC1=O [[^111In]In‐XG1‐C, [DOTA,Asn^5‐Ψ[Tz]‐Phe^6,DTrp^8,N‐Me‐Phe^11]SST‐14, metal not drawn] ({DOTA}-AGCK[X1]F[dW]KT[NMeF]TSC-OH; disulfide 3-13)
remaining at 4 h ([1]; human, plasma): 27%

Molecule: Ala^1 Gly^2 Cys^3 Lys^4 Asn^5 Phe^6 Phe^7 DTrp^8 Lys^9 Thr^10 Phe^11 Thr^12 Ser^13 Cys^14
cleaved bond [2]: Thr10-Phe11, major

Molecule: [DOTA,Asn^5‐Ψ[Tz]‐Phe^6,DTrp^8,Thr^10‐Ψ[NH]‐Phe^11]SST‐14
not cleaved [3]: more than 97% of intact peptide after 24 h

Molecule: [DOTA,Asn^5‐Ψ[Tz]‐Phe^6,DTrp^8,β‐Phe^11]SST‐14
not cleaved [3]: more than 97% of intact peptide after 24 h

total applied activity found at the cell membrane and internalized [4]: < 1%
Molecule: [DOTA,Asn^5‐Ψ[Tz]‐Phe^6,DTrp^8,β‐Phe^11]SST‐14 [[^111In]In‐XG1‐A]
